Test results taken from the supplement of paper PMC9170038.

Test system: MS2 coat protein
Experiment: apparent KD of MS2 coat protein; higher = weaker reporter binding
Settings: Eterna round: R107
Experimental: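 RNA-MaP round R107: designed RNA switches with theophylline, tryptophan, arginine or FMN aptamers are transcribed on-chip within common flanks. They are titrated with SNAP-549-labelled MS2 coat protein in RNA-MaP buffer (100 mM Tris pH 7.5, 80 mM KCl, 4 mM MgCl2), without ligand or with the indicated ligand. Median apparent KD per design.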

[1] = input ligand: theophylline 20 uM
[2] = input ligand: theophylline 2 mM
[3] = input ligand: tryptophan 2.4 mM

Row | Sequence | apparent KD of MS2 coat protein (input ligand: arginine 13.2 mM) [nM] | apparent KD of MS2 coat protein (input ligand: none) [nM] | apparent KD of MS2 coat protein [1] [nM] | apparent KD of MS2 coat protein [2] [nM] | apparent KD of MS2 coat protein [3] [nM]
1 | AUAUUAAUCGGAAGGAGCGGUACAUGAGGAUCACCCAUGUGUGAAGCGAGCAGAUCCCGUUACCAGGUAGGUCGCCGAGUUAUGA [XArg-B6] | 85.4 | 213 | 229 | 187 | 148
2 | AUCGUACCUGAGGAUACCAGCAUGUGAUCAUAACAUGAGGAUCACCCAUGUAAUCAGUGAUGCCCUUGGCAGCUUGGUCGAUACA [Same State - Theophylline B (Freestyle 9)] | 42.5 | – | 75 | – | 46.2
3 | AUCUUGUACCGUAAUACUUUACGUUGGGAUACCAGCAUGGACCCAUGCCCUUGGCAGCUUUACAUGAGGAUCACCCAUGUUGUAG [SSTheo A #28] | 26.3 | – | 42.2 | – | 39.9
4 | AUGUCUGAGUCGGCCGCCACUGGGUGUGGGUGAUGCCGGAUGUUGUACAUGAGGAUCACCCAUGUCAGGACCGGGAUUCCCACGA [Receve] | 6.2 | 10.4 | 12.7 | 8.73 | 10.2
5 | AUUAUCAUGGUCAUAUAUAUAUCUUCAGAUACCAGACUAUAUUAAGUCCCUUGGCAGCUGUUACAUGAGGAUCACCCAUGUUAUA [JR_ExcTheophyA_Sub014] | 53.9 | – | 76.1 | – | 102
6 | AUUAUCAUGGUCAUAUAUAUUUCGUCAGAUACCAGACUAGAUAUAGUCCCUUGGCAGCUGUUACAUGAGGAUCACCCAUGUUAUA [JR_ExcTheophyA_Sub016] | 55 | – | 76.8 | – | 93.3
7 | AUUUAUUGUCGUGAUACCAGACAUACAUGAGGAUCACCCAUGUUAAGUAACUUUUUUCAGGUCCCUUGGCAGCACUUUUUAAUUA [JR_Nu_SSTheophyB_Sub019] | 21.1 | – | 23.8 | – | 18.1
8 | AUUUUUCUAUCAGAUACCAGACAAUUUUAGACAUGAGGAUCACCCAUGUAUAGGGUGUUCGUCCCUUGGCAGCUGUUAAGUUUAA [JR_SSTheophyB_Sub004] | 62 | – | 152 | – | 182
9 | CAAUGCAGGUCGGCCGCCACUACACACAUGAGGAUCACCCAUGUAGUUACUGGGUGAAGUGGCAGUAGGACCGGGACCUGCAUAA [Brourdmod02] | 143 | – | 417 | 568 | –
10 | CACAAUUUGUCGGCCGCCACUAAGGUAACUUUUCUCACAUGAGGAUCACCCAUGUGCCCGAAACUUAGGACCGGGAUAAUGGGUG [Usteraor] | 35.9 | – | 146 | 183 | –
11 | CACAGUGCGAAAUUGAAUUCGCACGAUCCUCGAGGACCGGUACGGCCGCCACUCGCGCGGGUCGUACAUGAGGAUCACCCAUGUC [Zatiin] | 41.3 | – | 419 | 477 | –
12 | CACAUGAGGAUCACCCAUGUCUGAACUGAAGGAGCGCUAAACAAGGCAGGUAGGUCGCGGAAUCUUGUGUGCAUAUGCACACGGG [9.S] | 18.4 | 18.2 | 27.4 | 22.7 | 19.9
13 | CACGAAAGAUCGGCCGCCACUAUUUGAUGUGUUCUUUCACAUGAGGAUCACCCAUGUUCUUAUUUUAGGACCGGGAUUGAGCGUG [ETB #2] | 72.7 | – | 142 | 145 | –
14 | CACGAAAGAUCGGCCGCCACUAUUUGAUGUGUUCUUUCACAUGAGGAUCACCCAUGUUCUUUCUUUAGGACCGGGAUUGAGCGUG [ETB #1] | 88.8 | – | 126 | 162 | –
15 | CAGACUAGGGCGGCCGCCACUGUGGCUACGGUACAUGAGGAUCACCCAUGUUUGUGGUUGAUCUACAGGACCGGGCCCUGGCACG [Orbera] | 9.05 | 305 | 588 | 200 | 273
16 | CAUCCACCUGAAGCCUCCCAAUUCCUCGAUACCAGAGGAUUAAGACUCCCUUGGCAGCGAGCUACAUGAGGAUCACCCAUGUGCC [theeternabot_exclusion_MS2_Theo_A_32] | 17.8 | – | 24.1 | – | 18.2
17 | CAUCCUAGUACAUGAGGAUCACCCAUGUAUCGAGGACCGGUACGGCCGCCACUCGAAUGGCGGAUCGUUAAUCCUCUAGGAUGGA [Tryp A Ex 4a] | 11.7 | – | 14 | 11.5 | –
18 | CAUGCCAGGGCGGCCGCCACUGUGGCUACGGUACAUGAGGAUCACCCAUGUUUGUGGUUGAUCUACAGGACCGGGCCCUAGCACG [Anananenes] | 30.6 | – | 597 | 528 | –
19 | CAUUAAUUACGAAGGAGCGUCGAAAAUGGGUAAACAUGAGGAUCACCCAUGUAAAGGGAACGACAGGUAGGUCGCGUAAUUAAUG [AstromonsSSArgB#2] | 132 | 170 | 169 | 230 | 158
